Data taken from article PMC7293203.

Biological target: the activated zmTrpA variants (Zea mays)
Assay: activity titration

tryptophan synthase β-subunit TrpB1 from Zea mays, sequence (P43283 whole entry): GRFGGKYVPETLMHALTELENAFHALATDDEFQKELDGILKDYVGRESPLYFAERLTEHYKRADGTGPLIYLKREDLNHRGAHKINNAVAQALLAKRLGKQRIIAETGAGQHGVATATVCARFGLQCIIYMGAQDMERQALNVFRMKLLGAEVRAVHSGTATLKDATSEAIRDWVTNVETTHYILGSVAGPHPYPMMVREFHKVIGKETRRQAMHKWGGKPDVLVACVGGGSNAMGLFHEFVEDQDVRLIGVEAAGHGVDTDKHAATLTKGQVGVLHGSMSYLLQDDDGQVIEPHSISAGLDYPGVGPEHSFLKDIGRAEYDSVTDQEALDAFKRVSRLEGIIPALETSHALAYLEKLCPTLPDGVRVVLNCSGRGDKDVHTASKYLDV

tryptophan synthase β-subunit TrpB1 from Zea mays (from UniProt P43283 1-389) (enzyme)
Kd: 300 to 700 nM
